Biological target: T1, GST-HPY2 (Arabidopsis thaliana, UniProt Q8GYH7 1-249)
T1 construct: HIGH PLOIDY2 (HPY2), E3 SUMO ligase of Arabidopsis, full-length cDNA cloned into pGEX4T-1; also called HIGH PLOIDY2; AtHPY2; source: E. coli BL21, purified (glutathione resin)
T1 sequence (looked up): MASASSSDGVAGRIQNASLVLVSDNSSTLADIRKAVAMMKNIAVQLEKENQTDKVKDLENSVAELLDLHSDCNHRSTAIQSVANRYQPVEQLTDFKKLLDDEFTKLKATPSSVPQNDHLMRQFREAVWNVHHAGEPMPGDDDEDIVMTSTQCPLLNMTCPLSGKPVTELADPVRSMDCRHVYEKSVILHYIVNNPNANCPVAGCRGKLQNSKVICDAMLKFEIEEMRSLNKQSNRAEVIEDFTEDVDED
Test: pull-down; in vitro GST pull-down, 2 ug each of GST-HPY2 bait and His6-FLC prey; His6-FLC detected by Western blot with anti-His antibody
Conditions: both partners purified

binding result: binds
B1: His6-FLC (natural protein, Arabidopsis thaliana, UniProt Q9S7Q7 1-196, looked up)
chain: MGRKKLEIKRIENKSSRQVTFSKRRNGLIEKARQLSVLCDASVALLVVSASGKLYSFSSGDNLVKILDRYGKQHADDLKALDHQSKALNYGSHYELLELVDSKLVGSNVKNVSIDALVQLEEHLETALSVTRAKKTELMLKLVENLKEKEKMLKEENQVLASQMENNHHVGAEAEMEMSPAGQISDNLPVTLPLLN
notes: Flowering Locus C (FLC), MADS-box transcription factor of Arabidopsis, full-length cDNA cloned into pET28a; also called Flowering Locus C; source: E. coli BL21, purified (Ni2+-NTA resin)
